This test deals with T1, IL-11Rα (human (endogenous in RA ST fibroblasts and HUVECs)) (UniProt Q14626).
T1 sequence: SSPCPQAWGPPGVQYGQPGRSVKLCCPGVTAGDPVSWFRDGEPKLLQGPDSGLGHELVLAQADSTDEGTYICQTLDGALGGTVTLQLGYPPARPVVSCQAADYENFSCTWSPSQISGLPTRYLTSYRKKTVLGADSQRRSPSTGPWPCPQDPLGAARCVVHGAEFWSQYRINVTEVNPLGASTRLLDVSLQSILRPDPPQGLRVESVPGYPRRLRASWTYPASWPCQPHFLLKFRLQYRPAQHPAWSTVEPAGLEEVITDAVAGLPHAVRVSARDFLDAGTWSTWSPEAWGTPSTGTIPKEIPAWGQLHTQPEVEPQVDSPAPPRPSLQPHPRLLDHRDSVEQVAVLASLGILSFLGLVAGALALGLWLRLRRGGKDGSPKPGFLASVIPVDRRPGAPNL

In publication PMC5878720 one finds HUVEC transwell migration, 24h, IL-11 1-100 ng/ml, fold over control data, which are given here for one molecule.

B1: IL-11 (ligand)
chain: PGPPPGPPRVSPDPRAELDSTVLLTRSLLADTRQLAAQLRDKFPADGDHNLDSLPTLAMSAGALGALQLPGVLTRLRADLLSYLRHVQWLRRAGGSSLKTLEPELGTLQARLDRLLRRLQLLMSRLALPQPPPDPPAPPLAPPSSAWGGIRAAHAILGGLHLTLDWAVRGLLLLKTRL
B1: the HUVEC transwell migration, 24h, IL-11 1-100 ng/ml, fold over control is 3 to 15 fold.
